Paper PMC4351158 (Structure (London, England : 1993), 2015)

System: periplasmic domain of RseA
Assay: Cleavage of 35S-labeled RseA periplasmic domain by DegS variants
Type: biochemical, E. coli
Conditions: for YYF-stimulated cleavage activity, in words / YYF-stimulated cleavage activity relative to wild type: WT background; for YYF-stimulated cleavage activity, in words: compared to wild-type DegS; for YYF-stimulated cleavage activity relative to wild type / YYF-stimulated cleavage activity relative to H198P parental enzyme: with YYF; for YYF-stimulated cleavage activity relative to wild type: % of wild-type activity; for YYF-stimulated cleavage activity relative to H198P parental enzyme: H198P background, % of H198P parent

| Molecule | YYF-stimulated cleavage activity relative to wild type | other results |
| --- | --- | --- |
| R178A: DegS variant R178A (protein, left off: His6, N-terminal, state not stated) RSLNPLSTPQFDSTDETPASYNLAVRRAAPAVVNVYNRGLNTNSHNQLEIRTLGSGVIMDQRGYIITNKHVINDADQIIVALQDGRVFEALLVGSDSLTDLAVLKINATGGLPTIPINARRVPHIGDVVLAIGNPYNLGQTITQGIISATGAIGLNPTGRQNFLQTDASINHGNSGGALVNSLGELMGINTLSFDKSNDGETPEGIGFAIPFQLATKIMDKLIRDGRVIRGYIGIGGREIAPLHAQGGGIDQLQGIVVNEVSPDGPAANAGIQVNDLIISVDNKPAISALETMDQVAEIRPGSVIPVVVMRDDKQLTLQVTIQEYPATN |  | YYF-stimulated cleavage activity, in words: almost no cleavage activity |
| P161A: DegS variant P161A (protein, left off: His6, N-terminal, state not stated) RSLNPLSTPQFDSTDETPASYNLAVRRAAPAVVNVYNRGLNTNSHNQLEIRTLGSGVIMDQRGYIITNKHVINDADQIIVALQDGRVFEALLVGSDSLTDLAVLKINATGGLPTIPINARRVPHIGDVVLAIGNAYNLGQTITQGIISATGRIGLNPTGRQNFLQTDASINHGNSGGALVNSLGELMGINTLSFDKSNDGETPEGIGFAIPFQLATKIMDKLIRDGRVIRGYIGIGGREIAPLHAQGGGIDQLQGIVVNEVSPDGPAANAGIQVNDLIISVDNKPAISALETMDQVAEIRPGSVIPVVVMRDDKQLTLQVTIQEYPATN | less than 2% |  |
| L164A: DegS variant L164A (protein, left off: His6, N-terminal, state not stated) RSLNPLSTPQFDSTDETPASYNLAVRRAAPAVVNVYNRGLNTNSHNQLEIRTLGSGVIMDQRGYIITNKHVINDADQIIVALQDGRVFEALLVGSDSLTDLAVLKINATGGLPTIPINARRVPHIGDVVLAIGNPYNAGQTITQGIISATGRIGLNPTGRQNFLQTDASINHGNSGGALVNSLGELMGINTLSFDKSNDGETPEGIGFAIPFQLATKIMDKLIRDGRVIRGYIGIGGREIAPLHAQGGGIDQLQGIVVNEVSPDGPAANAGIQVNDLIISVDNKPAISALETMDQVAEIRPGSVIPVVVMRDDKQLTLQVTIQEYPATN | less than 2% |  |
| F220A: DegS variant F220A (protein, left off: His6, N-terminal, state not stated) RSLNPLSTPQFDSTDETPASYNLAVRRAAPAVVNVYNRGLNTNSHNQLEIRTLGSGVIMDQRGYIITNKHVINDADQIIVALQDGRVFEALLVGSDSLTDLAVLKINATGGLPTIPINARRVPHIGDVVLAIGNPYNLGQTITQGIISATGRIGLNPTGRQNFLQTDASINHGNSGGALVNSLGELMGINTLSADKSNDGETPEGIGFAIPFQLATKIMDKLIRDGRVIRGYIGIGGREIAPLHAQGGGIDQLQGIVVNEVSPDGPAANAGIQVNDLIISVDNKPAISALETMDQVAEIRPGSVIPVVVMRDDKQLTLQVTIQEYPATN |  | YYF-stimulated cleavage activity, in words: almost no cleavage activity |
| T167V: DegS variant T167V (protein, left off: His6, N-terminal, state not stated) RSLNPLSTPQFDSTDETPASYNLAVRRAAPAVVNVYNRGLNTNSHNQLEIRTLGSGVIMDQRGYIITNKHVINDADQIIVALQDGRVFEALLVGSDSLTDLAVLKINATGGLPTIPINARRVPHIGDVVLAIGNPYNLGQVITQGIISATGRIGLNPTGRQNFLQTDASINHGNSGGALVNSLGELMGINTLSFDKSNDGETPEGIGFAIPFQLATKIMDKLIRDGRVIRGYIGIGGREIAPLHAQGGGIDQLQGIVVNEVSPDGPAANAGIQVNDLIISVDNKPAISALETMDQVAEIRPGSVIPVVVMRDDKQLTLQVTIQEYPATN | less than 2% |  |
| T169A: DegS variant T169A (protein, left off: His6, N-terminal, state not stated) RSLNPLSTPQFDSTDETPASYNLAVRRAAPAVVNVYNRGLNTNSHNQLEIRTLGSGVIMDQRGYIITNKHVINDADQIIVALQDGRVFEALLVGSDSLTDLAVLKINATGGLPTIPINARRVPHIGDVVLAIGNPYNLGQTIAQGIISATGRIGLNPTGRQNFLQTDASINHGNSGGALVNSLGELMGINTLSFDKSNDGETPEGIGFAIPFQLATKIMDKLIRDGRVIRGYIGIGGREIAPLHAQGGGIDQLQGIVVNEVSPDGPAANAGIQVNDLIISVDNKPAISALETMDQVAEIRPGSVIPVVVMRDDKQLTLQVTIQEYPATN | less than 2% |  |
| N197A: DegS variant N197A (protein, left off: His6, N-terminal, state not stated) RSLNPLSTPQFDSTDETPASYNLAVRRAAPAVVNVYNRGLNTNSHNQLEIRTLGSGVIMDQRGYIITNKHVINDADQIIVALQDGRVFEALLVGSDSLTDLAVLKINATGGLPTIPINARRVPHIGDVVLAIGNPYNLGQTITQGIISATGRIGLNPTGRQNFLQTDASIAHGNSGGALVNSLGELMGINTLSFDKSNDGETPEGIGFAIPFQLATKIMDKLIRDGRVIRGYIGIGGREIAPLHAQGGGIDQLQGIVVNEVSPDGPAANAGIQVNDLIISVDNKPAISALETMDQVAEIRPGSVIPVVVMRDDKQLTLQVTIQEYPATN | less than 2% |  |
| I232A: DegS variant I232A (protein, left off: His6, N-terminal, state not stated) RSLNPLSTPQFDSTDETPASYNLAVRRAAPAVVNVYNRGLNTNSHNQLEIRTLGSGVIMDQRGYIITNKHVINDADQIIVALQDGRVFEALLVGSDSLTDLAVLKINATGGLPTIPINARRVPHIGDVVLAIGNPYNLGQTITQGIISATGRIGLNPTGRQNFLQTDASINHGNSGGALVNSLGELMGINTLSFDKSNDGETPEGAGFAIPFQLATKIMDKLIRDGRVIRGYIGIGGREIAPLHAQGGGIDQLQGIVVNEVSPDGPAANAGIQVNDLIISVDNKPAISALETMDQVAEIRPGSVIPVVVMRDDKQLTLQVTIQEYPATN | less than 2% |  |
| F234A: DegS variant F234A (protein, left off: His6, N-terminal, state not stated) RSLNPLSTPQFDSTDETPASYNLAVRRAAPAVVNVYNRGLNTNSHNQLEIRTLGSGVIMDQRGYIITNKHVINDADQIIVALQDGRVFEALLVGSDSLTDLAVLKINATGGLPTIPINARRVPHIGDVVLAIGNPYNLGQTITQGIISATGRIGLNPTGRQNFLQTDASINHGNSGGALVNSLGELMGINTLSFDKSNDGETPEGIGAAIPFQLATKIMDKLIRDGRVIRGYIGIGGREIAPLHAQGGGIDQLQGIVVNEVSPDGPAANAGIQVNDLIISVDNKPAISALETMDQVAEIRPGSVIPVVVMRDDKQLTLQVTIQEYPATN | less than 2% |  |
| Q191A: DegS variant Q191A (protein, left off: His6, N-terminal, state not stated) RSLNPLSTPQFDSTDETPASYNLAVRRAAPAVVNVYNRGLNTNSHNQLEIRTLGSGVIMDQRGYIITNKHVINDADQIIVALQDGRVFEALLVGSDSLTDLAVLKINATGGLPTIPINARRVPHIGDVVLAIGNPYNLGQTITQGIISATGRIGLNPTGRQNFLATDASINHGNSGGALVNSLGELMGINTLSFDKSNDGETPEGIGFAIPFQLATKIMDKLIRDGRVIRGYIGIGGREIAPLHAQGGGIDQLQGIVVNEVSPDGPAANAGIQVNDLIISVDNKPAISALETMDQVAEIRPGSVIPVVVMRDDKQLTLQVTIQEYPATN | less than 2% |  |
| Y162A: DegS variant Y162A (protein, left off: His6, N-terminal, state not stated) RSLNPLSTPQFDSTDETPASYNLAVRRAAPAVVNVYNRGLNTNSHNQLEIRTLGSGVIMDQRGYIITNKHVINDADQIIVALQDGRVFEALLVGSDSLTDLAVLKINATGGLPTIPINARRVPHIGDVVLAIGNPANLGQTITQGIISATGRIGLNPTGRQNFLQTDASINHGNSGGALVNSLGELMGINTLSFDKSNDGETPEGIGFAIPFQLATKIMDKLIRDGRVIRGYIGIGGREIAPLHAQGGGIDQLQGIVVNEVSPDGPAANAGIQVNDLIISVDNKPAISALETMDQVAEIRPGSVIPVVVMRDDKQLTLQVTIQEYPATN | less than 2% |  |
| R178A/H198P (protein, UniProt P0AEE3 1-355, looked up, variant R178A H198P) Serine endoprotease DegS: MFVKLLRSVAIGLIVGAILLVAMPSLRSLNPLSTPQFDSTDETPASYNLAVRRAAPAVVNVYNRGLNTNSHNQLEIRTLGSGVIMDQRGYIITNKHVINDADQIIVALQDGRVFEALLVGSDSLTDLAVLKINATGGLPTIPINARRVPHIGDVVLAIGNPYNLGQTITQGIISATGAIGLNPTGRQNFLQTDASINPGNSGGALVNSLGELMGINTLSFDKSNDGETPEGIGFAIPFQLATKIMDKLIRDGRVIRGYIGIGGREIAPLHAQGGGIDQLQGIVVNEVSPDGPAANAGIQVNDLIISVDNKPAISALETMDQVAEIRPGSVIPVVVMRDDKQLTLQVTIQEYPATN |  | YYF-stimulated cleavage activity relative to H198P parental enzyme: 9–24% |
| F220A/H198P (protein, UniProt P0AEE3 1-355, looked up, variant F220A H198P) Serine endoprotease DegS: MFVKLLRSVAIGLIVGAILLVAMPSLRSLNPLSTPQFDSTDETPASYNLAVRRAAPAVVNVYNRGLNTNSHNQLEIRTLGSGVIMDQRGYIITNKHVINDADQIIVALQDGRVFEALLVGSDSLTDLAVLKINATGGLPTIPINARRVPHIGDVVLAIGNPYNLGQTITQGIISATGRIGLNPTGRQNFLQTDASINPGNSGGALVNSLGELMGINTLSADKSNDGETPEGIGFAIPFQLATKIMDKLIRDGRVIRGYIGIGGREIAPLHAQGGGIDQLQGIVVNEVSPDGPAANAGIQVNDLIISVDNKPAISALETMDQVAEIRPGSVIPVVVMRDDKQLTLQVTIQEYPATN |  | YYF-stimulated cleavage activity relative to H198P parental enzyme: 9–24% |
